Laboratory results from publication PMC13534707, “Vps1 drives membrane constriction and fission necessary for endosomal protein sorting” (The EMBO Journal, 2026).

What was measured:
[1] = molecular target: Vps1(ΔInsB) (S. cerevisiae) (UniProt P21576); test: SEC-MALS; purified Vps1 (~0.32 mg/ml) on Superose 6 10/300 GL, 20 mM HEPES pH 7.5, 150 mM NaCl, room temperature; self-association in solution
[2] = molecular target: the molecule itself; test: as above

Molecule | stoichiometry N [2] | other results
Vps1(ΔInsB) (from UniProt P21576 1-535; P21576 613-704) (enzyme) | – | stoichiometry N [1]: 2
Vps1(Δ4F) (enzyme, S. cerevisiae, UniProt P21576 1-704, looked up, Vps1, S. cerevisiae, lacking the phenylalanine-rich 4F motif (residues 579-587) of Insert B; Same tags as m1; source: bacterially expressed, T7 Express (NEB), purified (Strep-trap HP or Streptactin XT)) MDEHLISTINKLQDALAPLGGGSQSPIDLPQITVVGSQSSGKSSVLENIVGRDFLPRGTGIVTRRPLVLQLINRRPKKSEHAKVNQTANELIDLNINDDDKKKDESGKHQNEGQSEDNKEEWGEFLHLPGKKFYNFDEIRKEIVKETDKVTGANSGISSVPINLRIYSPHVLTLTLVDLPGLTKVPVGDQPPDIERQIKDMLLKYISKPNAIILSVNAANTDLANSDGLKLAREVDPEGTRTIGVLTKVDLMDQGTDVIDILAGRVIPLRYGYIPVINRGQKDIEHKKTIREALENERKFFENHPSYSSKAHYCGTPYLAKKLNSILLHHIRQTLPEIKAKIEATLKKYQNELINLGPETMDSASSVVLSMITDFSNEYAGILDGEAKELSSQELSGGARISYVFHETFKNGVDSLDPFDQIKDSDIRTIMYNSSGSAPSLFVGTEAFEVLVKQQIRRFEEPSLRLVTLVFDELVRMLKQIISQPKYSRYPALREAISNQFIQFLKDATIPTNEFVVDIIKAEQTYINTAHPDLLKGSQAMVMVEEKLHPRQVAVDPKTGKPLPTQPSSSKAPVMEEKTKNKKKLAALESPPPVLKATGQMTERETMETEVIKLLISSYFSIVKRTIADIIPKALMLKLIVKSKTDIQKVLLEKLYGKQDIEELTKENDITIQRRKECKKMVEILRNASQIVSSV | 4 | –
Vacuolar protein sorting-associated protein 1 (Vps1), wild type, recombinant (enzyme, S. cerevisiae, UniProt P21576 1-704, looked up, Vps1, S. cerevisiae; the Vps1 gene amplified from genomic DNA and cloned into pET15b; A TEV site follows the N-terminal 6xHis tag; also called WT; wild-type Vps1; source: bacterially expressed, T7 Express (NEB), purified (Strep-trap HP or Streptactin XT)) MDEHLISTINKLQDALAPLGGGSQSPIDLPQITVVGSQSSGKSSVLENIVGRDFLPRGTGIVTRRPLVLQLINRRPKKSEHAKVNQTANELIDLNINDDDKKKDESGKHQNEGQSEDNKEEWGEFLHLPGKKFYNFDEIRKEIVKETDKVTGANSGISSVPINLRIYSPHVLTLTLVDLPGLTKVPVGDQPPDIERQIKDMLLKYISKPNAIILSVNAANTDLANSDGLKLAREVDPEGTRTIGVLTKVDLMDQGTDVIDILAGRVIPLRYGYIPVINRGQKDIEHKKTIREALENERKFFENHPSYSSKAHYCGTPYLAKKLNSILLHHIRQTLPEIKAKIEATLKKYQNELINLGPETMDSASSVVLSMITDFSNEYAGILDGEAKELSSQELSGGARISYVFHETFKNGVDSLDPFDQIKDSDIRTIMYNSSGSAPSLFVGTEAFEVLVKQQIRRFEEPSLRLVTLVFDELVRMLKQIISQPKYSRYPALREAISNQFIQFLKDATIPTNEFVVDIIKAEQTYINTAHPDLLKGSQAMVMVEEKLHPRQVAVDPKTGKPLPTQPSSSKAPVMEEKSGFFGGFFSTKNKKKLAALESPPPVLKATGQMTERETMETEVIKLLISSYFSIVKRTIADIIPKALMLKLIVKSKTDIQKVLLEKLYGKQDIEELTKENDITIQRRKECKKMVEILRNASQIVSSV | – | binding result [2]: binds
Vps1(G436D) (enzyme, S. cerevisiae, UniProt P21576 1-704, looked up, Vps1, S. cerevisiae, with G436D made by site-directed mutagenesis of the pET15b construct; Same tags as m1; source: bacterially expressed, T7 Express (NEB), purified (Strep-trap HP or Streptactin XT)) MDEHLISTINKLQDALAPLGGGSQSPIDLPQITVVGSQSSGKSSVLENIVGRDFLPRGTGIVTRRPLVLQLINRRPKKSEHAKVNQTANELIDLNINDDDKKKDESGKHQNEGQSEDNKEEWGEFLHLPGKKFYNFDEIRKEIVKETDKVTGANSGISSVPINLRIYSPHVLTLTLVDLPGLTKVPVGDQPPDIERQIKDMLLKYISKPNAIILSVNAANTDLANSDGLKLAREVDPEGTRTIGVLTKVDLMDQGTDVIDILAGRVIPLRYGYIPVINRGQKDIEHKKTIREALENERKFFENHPSYSSKAHYCGTPYLAKKLNSILLHHIRQTLPEIKAKIEATLKKYQNELINLGPETMDSASSVVLSMITDFSNEYAGILDGEAKELSSQELSGGARISYVFHETFKNGVDSLDPFDQIKDSDIRTIMYNSSDSAPSLFVGTEAFEVLVKQQIRRFEEPSLRLVTLVFDELVRMLKQIISQPKYSRYPALREAISNQFIQFLKDATIPTNEFVVDIIKAEQTYINTAHPDLLKGSQAMVMVEEKLHPRQVAVDPKTGKPLPTQPSSSKAPVMEEKSGFFGGFFSTKNKKKLAALESPPPVLKATGQMTERETMETEVIKLLISSYFSIVKRTIADIIPKALMLKLIVKSKTDIQKVLLEKLYGKQDIEELTKENDITIQRRKECKKMVEILRNASQIVSSV | 2 | –
Vps1(Δ3K) (enzyme, S. cerevisiae, UniProt P21576 1-704, looked up, Vps1, S. cerevisiae, lacking the lysine-rich 3K motif (residues 591-593) of Insert B; Same tags as m1; source: bacterially expressed, T7 Express (NEB), purified (Strep-trap HP or Streptactin XT)) MDEHLISTINKLQDALAPLGGGSQSPIDLPQITVVGSQSSGKSSVLENIVGRDFLPRGTGIVTRRPLVLQLINRRPKKSEHAKVNQTANELIDLNINDDDKKKDESGKHQNEGQSEDNKEEWGEFLHLPGKKFYNFDEIRKEIVKETDKVTGANSGISSVPINLRIYSPHVLTLTLVDLPGLTKVPVGDQPPDIERQIKDMLLKYISKPNAIILSVNAANTDLANSDGLKLAREVDPEGTRTIGVLTKVDLMDQGTDVIDILAGRVIPLRYGYIPVINRGQKDIEHKKTIREALENERKFFENHPSYSSKAHYCGTPYLAKKLNSILLHHIRQTLPEIKAKIEATLKKYQNELINLGPETMDSASSVVLSMITDFSNEYAGILDGEAKELSSQELSGGARISYVFHETFKNGVDSLDPFDQIKDSDIRTIMYNSSGSAPSLFVGTEAFEVLVKQQIRRFEEPSLRLVTLVFDELVRMLKQIISQPKYSRYPALREAISNQFIQFLKDATIPTNEFVVDIIKAEQTYINTAHPDLLKGSQAMVMVEEKLHPRQVAVDPKTGKPLPTQPSSSKAPVMEEKSGFFGGFFSTKNLAALESPPPVLKATGQMTERETMETEVIKLLISSYFSIVKRTIADIIPKALMLKLIVKSKTDIQKVLLEKLYGKQDIEELTKENDITIQRRKECKKMVEILRNASQIVSSV | 4 | –
